Results on six molecules are retold here after patent US20110229560A1 (published 2011).

The target in assay [1] is T1, HA-tagged NLRC5 (human NLRC5, full length) (human, UniProt Q86WI3 1-1866).
T1 construct: Expressed from pcDNA3.1 with an HA tag in transfected 293T cells; used in lysates for co-immunoprecipitation; General statements about NLRC5 in overexpression experiments are put on this molecule; also called HA-NLRC5
In words: co-IP (anti-Flag or anti-HA beads) and Western blot, FIG. 15. A general note: In western blotting, separated proteins are transferred to a membrane and probed.

In assay [2] the target is T1, HA-tagged NLRC5 (human NLRC5, full …). In words: co-IP (anti-HA beads) and Western blot (anti-Flag), transfected 293T cells.
Assay [3] addresses T2, endogenous mouse NLRC5 (RAW264.7 cells) (mouse, UniProt C3VPR6 1-1915, limits assumed).
T2 construct: Endogenous protein; also called mNLRC5; endogenous mNLRC5
In words: IP of RAW264.7 lysate with anti-mNLRC5, Western blot with anti-NEMO.

T1 sequence (Q86WI3 whole entry N907D): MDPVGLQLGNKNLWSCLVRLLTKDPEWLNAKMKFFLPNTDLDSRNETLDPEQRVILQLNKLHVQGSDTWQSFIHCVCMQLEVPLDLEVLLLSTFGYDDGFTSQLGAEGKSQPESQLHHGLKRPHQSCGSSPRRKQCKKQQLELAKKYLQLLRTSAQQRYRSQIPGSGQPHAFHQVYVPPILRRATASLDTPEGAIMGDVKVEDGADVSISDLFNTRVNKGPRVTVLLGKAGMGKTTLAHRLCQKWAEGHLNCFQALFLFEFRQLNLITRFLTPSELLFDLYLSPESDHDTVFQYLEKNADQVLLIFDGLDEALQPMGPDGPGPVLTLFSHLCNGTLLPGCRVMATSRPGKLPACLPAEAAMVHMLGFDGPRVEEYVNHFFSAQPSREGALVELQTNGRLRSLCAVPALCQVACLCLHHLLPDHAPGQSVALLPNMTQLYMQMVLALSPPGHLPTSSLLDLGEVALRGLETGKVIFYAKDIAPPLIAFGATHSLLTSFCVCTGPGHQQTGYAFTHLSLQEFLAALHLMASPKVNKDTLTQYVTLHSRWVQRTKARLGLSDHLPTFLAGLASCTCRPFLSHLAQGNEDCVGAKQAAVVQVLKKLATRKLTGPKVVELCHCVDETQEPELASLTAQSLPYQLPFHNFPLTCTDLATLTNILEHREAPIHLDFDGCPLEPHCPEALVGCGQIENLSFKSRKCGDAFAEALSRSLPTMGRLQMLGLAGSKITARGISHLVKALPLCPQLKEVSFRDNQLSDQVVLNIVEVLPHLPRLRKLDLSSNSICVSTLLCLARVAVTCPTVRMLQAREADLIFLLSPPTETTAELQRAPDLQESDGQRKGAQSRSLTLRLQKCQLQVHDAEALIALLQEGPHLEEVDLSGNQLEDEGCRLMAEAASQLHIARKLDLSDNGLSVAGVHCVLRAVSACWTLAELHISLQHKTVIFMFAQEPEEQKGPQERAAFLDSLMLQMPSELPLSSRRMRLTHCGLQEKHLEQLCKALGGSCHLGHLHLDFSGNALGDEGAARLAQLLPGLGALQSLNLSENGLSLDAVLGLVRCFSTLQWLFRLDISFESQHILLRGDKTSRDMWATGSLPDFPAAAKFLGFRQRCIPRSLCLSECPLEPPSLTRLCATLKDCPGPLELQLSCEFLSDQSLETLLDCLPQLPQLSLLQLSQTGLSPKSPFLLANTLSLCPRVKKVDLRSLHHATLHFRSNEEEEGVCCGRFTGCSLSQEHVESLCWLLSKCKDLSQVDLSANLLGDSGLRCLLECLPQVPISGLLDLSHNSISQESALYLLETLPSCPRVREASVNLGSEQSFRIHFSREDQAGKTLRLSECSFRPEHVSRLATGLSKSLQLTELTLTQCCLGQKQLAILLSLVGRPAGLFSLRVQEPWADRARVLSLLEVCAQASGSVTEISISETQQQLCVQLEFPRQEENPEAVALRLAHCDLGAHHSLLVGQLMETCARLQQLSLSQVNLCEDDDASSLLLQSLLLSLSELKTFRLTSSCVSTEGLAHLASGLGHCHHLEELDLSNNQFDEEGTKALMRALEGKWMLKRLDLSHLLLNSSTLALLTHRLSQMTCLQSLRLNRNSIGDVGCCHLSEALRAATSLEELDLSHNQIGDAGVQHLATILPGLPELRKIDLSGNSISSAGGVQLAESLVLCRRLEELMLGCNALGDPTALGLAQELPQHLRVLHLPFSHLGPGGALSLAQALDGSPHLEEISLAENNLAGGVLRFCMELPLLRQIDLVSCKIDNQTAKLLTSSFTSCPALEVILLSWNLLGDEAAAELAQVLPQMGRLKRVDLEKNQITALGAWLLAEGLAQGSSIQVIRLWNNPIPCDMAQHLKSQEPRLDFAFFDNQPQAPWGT
T2 sequence (C3VPR6 whole entry G881R): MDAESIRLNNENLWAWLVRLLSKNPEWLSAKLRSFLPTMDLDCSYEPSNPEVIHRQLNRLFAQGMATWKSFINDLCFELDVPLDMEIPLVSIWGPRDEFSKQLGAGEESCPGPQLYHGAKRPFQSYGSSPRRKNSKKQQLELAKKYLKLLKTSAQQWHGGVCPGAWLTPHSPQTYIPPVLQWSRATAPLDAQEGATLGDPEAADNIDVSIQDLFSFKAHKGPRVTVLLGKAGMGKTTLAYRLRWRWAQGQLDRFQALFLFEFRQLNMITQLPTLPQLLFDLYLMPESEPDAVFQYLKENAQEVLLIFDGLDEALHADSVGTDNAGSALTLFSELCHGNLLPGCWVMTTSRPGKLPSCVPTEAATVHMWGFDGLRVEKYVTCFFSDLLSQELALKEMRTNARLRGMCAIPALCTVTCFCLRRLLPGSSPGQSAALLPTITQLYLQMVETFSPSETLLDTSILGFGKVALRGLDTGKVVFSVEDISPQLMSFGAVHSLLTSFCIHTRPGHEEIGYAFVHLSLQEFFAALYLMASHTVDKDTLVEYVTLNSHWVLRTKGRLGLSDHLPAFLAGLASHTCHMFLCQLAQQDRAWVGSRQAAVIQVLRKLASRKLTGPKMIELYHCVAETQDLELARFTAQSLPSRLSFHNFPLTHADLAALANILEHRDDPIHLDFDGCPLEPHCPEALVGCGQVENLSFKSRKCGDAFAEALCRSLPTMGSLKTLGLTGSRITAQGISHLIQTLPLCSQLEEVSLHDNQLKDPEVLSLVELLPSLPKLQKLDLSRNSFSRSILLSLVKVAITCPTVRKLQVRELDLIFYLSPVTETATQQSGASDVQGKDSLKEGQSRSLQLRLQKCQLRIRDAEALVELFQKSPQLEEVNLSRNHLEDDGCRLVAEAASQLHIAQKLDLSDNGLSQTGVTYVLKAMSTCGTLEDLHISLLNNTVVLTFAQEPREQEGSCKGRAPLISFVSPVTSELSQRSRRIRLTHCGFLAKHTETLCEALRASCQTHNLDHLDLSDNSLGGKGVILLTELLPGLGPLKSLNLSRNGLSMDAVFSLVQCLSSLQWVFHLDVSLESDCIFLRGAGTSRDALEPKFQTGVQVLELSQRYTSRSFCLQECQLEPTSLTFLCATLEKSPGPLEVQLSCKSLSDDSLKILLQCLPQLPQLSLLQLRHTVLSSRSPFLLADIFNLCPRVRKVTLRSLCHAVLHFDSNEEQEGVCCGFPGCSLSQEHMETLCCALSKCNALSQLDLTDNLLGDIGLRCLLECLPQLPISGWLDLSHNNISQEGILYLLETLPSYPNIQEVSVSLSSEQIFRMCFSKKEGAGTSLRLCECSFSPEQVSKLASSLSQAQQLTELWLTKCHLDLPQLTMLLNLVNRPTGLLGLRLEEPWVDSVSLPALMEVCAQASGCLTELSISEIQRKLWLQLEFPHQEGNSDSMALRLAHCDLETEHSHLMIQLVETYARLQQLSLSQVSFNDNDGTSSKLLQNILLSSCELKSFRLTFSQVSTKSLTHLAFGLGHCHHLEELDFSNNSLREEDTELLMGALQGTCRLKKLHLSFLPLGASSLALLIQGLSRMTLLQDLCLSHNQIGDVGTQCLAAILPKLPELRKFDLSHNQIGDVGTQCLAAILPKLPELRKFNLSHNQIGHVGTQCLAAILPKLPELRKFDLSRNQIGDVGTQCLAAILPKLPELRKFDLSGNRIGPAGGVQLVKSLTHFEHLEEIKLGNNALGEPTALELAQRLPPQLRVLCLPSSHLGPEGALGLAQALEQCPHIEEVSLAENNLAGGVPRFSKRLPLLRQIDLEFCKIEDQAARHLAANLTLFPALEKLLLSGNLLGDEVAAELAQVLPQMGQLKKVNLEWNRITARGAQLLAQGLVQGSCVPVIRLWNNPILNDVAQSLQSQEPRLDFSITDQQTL

B1: IRF3 (expressed in 293T cells) (other, UniProt Q14653 1-427, looked up, not shown: small tags and cut ends)
chain: MGTPKPRILPWLVSQLDLGQLEGVAWVNKSRTRFRIPWKHGLRQDAQQEDFGIFQAWAEATGAYVPGRDKPDLPTWKRNFRSALNRKEGLRLAEDRSKDPHDPHKIYEFVNSGVGDFSQPDTSPDTNGGGSTSDTQEDILDELLGNMVLAPLPDPGPPSLAVAPEPCPQPLRSPSLDNPTPFPNLGPSENPLKRLLVPGEEWEFEVTAFYRGRQVFQQTISCPEGLRLVGSEVGDRTLPGWPVTLPDPGMSLTDRGVMSYVRHVLSCLGGGLALWRAGQWLWAQRLGHCHTYWAVSEELLPNSGHGPDGEVPKDKEGGVFDLGPFIVDLITFTEGSGRSPRYALWFCVGESWPQDQPWTKRLVMVKVVPTCLRALVEMARVGGASSLENTVDLHISNSHPLSLTSDQYKAYLQDLVEGMDFQGPGES
In the case of B1, the binding result in assay [1] is listed as “no binding”.

B2: Flag-MAVS (other, UniProt Q7Z434 1-540, looked up, not shown: small tags and cut ends)
chain: MPFAEDKTYKYICRNFSNFCNVDVVEILPYLPCLTARDQDRLRATCTLSGNRDTLWHLFNTLQRRPGWVEYFIAALRGCELVDLADEVASVYQSYQPRTSDRPPDPLEPPSLPAERPGPPTPAAAHSIPYNSCREKEPSYPMPVQETQAPESPGENSEQALQTLSPRAIPRNPDGGPLESSSDLAALSPLTSSGHQEQDTELGSTHTAGATSSLTPSRGPVSPSVSFQPLARSTPRASRLPGPTGSVVSTGTSFSSSSPGLASAGAAEGKQGAESDQAEPIICSSGAEAPANSLPSKVPTTLMPVNTVALKVPANPASVSTVPSKLPTSSKPPGAVPSNALTNPAPSKLPINSTRAGMVPSKVPTSMVLTKVSASTVPTDGSSRNEETPAAPTPAGATGGSSAWLDSSSENRGLGSELSKPGVLASQVDSPFSGCFEDLAISASTSLGMGPCHGPEENEYKSEGTFGIHVAENPSIQLLEGNPGPPADPDGGPRPQADRKFQEREVPCHRPSPGALWLQVAVTGVLVVTLLVVLYRRRLH
Regarding B2, the binding result in assay [2] is listed as “no binding”.

B3: TBK1 (expressed in 293T cells) (enzyme, UniProt Q9UHD2 1-729, looked up, not shown: small tags and cut ends)
chain: MQSTSNHLWLLSDILGQGATANVFRGRHKKTGDLFAIKVFNNISFLRPVDVQMREFEVLKKLNHKNIVKLFAIEEETTTRHKVLIMEFCPCGSLYTVLEEPSNAYGLPESEFLIVLRDVVGGMNHLRENGIVHRDIKPGNIMRVIGEDGQSVYKLTDFGAARELEDDEQFVSLYGTEEYLHPDMYERAVLRKDHQKKYGATVDLWSIGVTFYHAATGSLPFRPFEGPRRNKEVMYKIITGKPSGAISGVQKAENGPIDWSGDMPVSCSLSRGLQVLLTPVLANILEADQEKCWGFDQFFAETSDILHRMVIHVFSLQQMTAHKIYIHSYNTATIFHELVYKQTKIISSNQELIYEGRRLVLEPGRLAQHFPKTTEENPIFVVSREPLNTIGLIYEKISLPKVHPRYDLDGDASMAKAITGVVCYACRIASTLLLYQELMRKGIRWLIELIKDDYNETVHKKTEVVITLDFCIRNIEKTVKVYEKLMKINLEAAELGEISDIHTKLLRLSSSQGTIETSLQDIDSRLSPGGSLADAWAHQEGTHPKDRNVEKLQVLLNCMTEIYYQFKKDKAERRLAYNEEQIHKFDKQKLYYHATKAMTHFTDECVKKYEAFLNKSEEWIRKMLHLRKQLLSLTNQCFDIEEEVSKYQEYTNELQETLPQKMFTASSGIKHTMTPIYPSSNTLVEMTLGMKKLKEEMEGVVKELAENNHILERFGSLTMDGGLRNVDCL
Regarding B3, the binding result in assay [1] is on record as “no binding”.

B4: endogenous NEMO (RAW264.7 cells) (other, mouse, UniProt O88522 1-412, looked up)
chain: MNKHPWKNQLSEMVQPSGGPAEDQDMLGEESSLGKPAMLHLPSEQGTPETLQRCLEENQELRDAIRQSNQMLRERCEELLHFQVSQREEKEFLMCKFQEARKLVERLSLEKLDLRSQREQALKELEQLKKCQQQMAEDKASVKAQVTSLLGELQESQSRLEAATKDRQALEGRIRAVSEQVRQLESEREVLQQQHSVQVDQLRMQNQSVEAALRMERQAASEEKRKLAQLQAAYHQLFQDYDSHIKSSKGMQLEDLRQQLQQAEEALVAKQELIDKLKEEAEQHKIVMETVPVLKAQADIYKADFQAERHAREKLVEKKEYLQEQLEQLQREFNKLKVGCHESARIEDMRKRHVETPQPPLLPAPAHHSFHLALSNQRRSPPEEPPDFCCPKCQYQAPDMDTLQIHVMECIE
Consider B4, for which the binding result in assay [3] is “no binding”.

B5: IKKi (expressed in 293T cells, detected with anti-Flag) (enzyme, UniProt Q14164 1-716, looked up, not shown: small tags and cut ends)
chain: MQSTANYLWHTDDLLGQGATASVYKARNKKSGELVAVKVFNTTSYLRPREVQVREFEVLRKLNHQNIVKLFAVEETGGSRQKVLVMEYCSSGSLLSVLESPENAFGLPEDEFLVVLRCVVAGMNHLRENGIVHRDIKPGNIMRLVGEEGQSIYKLTDFGAARELDDDEKFVSVYGTEEYLHPDMYERAVLRKPQQKAFGVTVDLWSIGVTLYHAATGSLPFIPFGGPRRNKEIMYRITTEKPAGAIAGAQRRENGPLEWSYTLPITCQLSLGLQSQLVPILANILEVEQAKCWGFDQFFAETSDILQRVVVHVFSLSQAVLHHIYIHAHNTIAIFQEAVHKQTSVAPRHQEYLFEGHLCVLEPSVSAQHIAHTTASSPLTLFSTAIPKGLAFRDPALDVPKFVPKVDLQADYNTAKGVLGAGYQALRLARALLDGQELMFRGLHWVMEVLQATCRRTLEVARTSLLYLSSSLGTERFSSVAGTPEIQELKAAAELRSRLRTLAEVLSRCSQNITETQESLSSLNRELVKSRDQVHEDRSIQQIQCCLDKMNFIYKQFKKSRMRPGLGYNEEQIHKLDKVNFSHLAKRLLQVFQEECVQKYQASLVTHGKRMRVVHETRNHLRLVGCSVAACNTEAQGVQESLSKLLEELSHQLLQDRAKGAQASPPPIAPYPSPTRKDLLLHMQELCEGMKLLASDLLDNNRIIERLNRVPAPPDV
For the molecule B5, the binding result in assay [2] is reported as “no binding”.

B6: TRAF3 (expressed in 293T cells) (other, UniProt Q13114 1-568, looked up, not shown: small tags and cut ends)
chain: MESSKKMDSPGALQTNPPLKLHTDRSAGTPVFVPEQGGYKEKFVKTVEDKYKCEKCHLVLCSPKQTECGHRFCESCMAALLSSSSPKCTACQESIVKDKVFKDNCCKREILALQIYCRNESRGCAEQLMLGHLLVHLKNDCHFEELPCVRPDCKEKVLRKDLRDHVEKACKYREATCSHCKSQVPMIALQKHEDTDCPCVVVSCPHKCSVQTLLRSELSAHLSECVNAPSTCSFKRYGCVFQGTNQQIKAHEASSAVQHVNLLKEWSNSLEKKVSLLQNESVEKNKSIQSLHNQICSFEIEIERQKEMLRNNESKILHLQRVIDSQAEKLKELDKEIRPFRQNWEEADSMKSSVESLQNRVTELESVDKSAGQVARNTGLLESQLSRHDQMLSVHDIRLADMDLRFQVLETASYNGVLIWKIRDYKRRKQEAVMGKTLSLYSQPFYTGYFGYKMCARVYLNGDGMGKGTHLSLFFVIMRGEYDALLPWPFKQKVTLMLMDQGSSRRHLGDAFKPDPNSSSFKKPTGEMNIASGCPVFVAQTVLENGTYIKDDTIFIKVIVDTSDLPDP
Regarding B6, the binding result in assay [1] was “no binding”.
